Some targets named below: Cx43CT (S255-I382) (UniProt P08050); Cx45CT (K265-I396) (UniProt P28229); Cx40CT (S251-V355).
Common to all, as to experiment: NMR titration

UniProt P28229, sequence (P28229 265-396): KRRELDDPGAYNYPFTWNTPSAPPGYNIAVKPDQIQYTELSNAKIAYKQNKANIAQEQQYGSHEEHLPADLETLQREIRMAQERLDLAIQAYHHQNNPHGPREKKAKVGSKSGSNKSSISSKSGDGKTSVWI
UniProt P08050, sequence (P08050 255-382): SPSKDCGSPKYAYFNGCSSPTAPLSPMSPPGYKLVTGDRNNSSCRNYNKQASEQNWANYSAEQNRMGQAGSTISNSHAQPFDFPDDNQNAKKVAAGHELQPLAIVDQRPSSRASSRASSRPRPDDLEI

For “UBA domain of CIP75 (M549-S596) (from UniProt Q99NB8 549-596) (domain or fragment)”, the Kd (usually the free concentration of one partner at which half of the binding sites on the other are occupied at equilibrium, for simple one-to-one binding) with Cx43CT (S255-I382) was 278 µM; with Cx45CT (K265-I396), 286 µM; in the assay with Cx40CT (S251-V355) it was 600 µM.

Source of the values: publication PMC4783143.
